From PMC4740875, “Sequential domain assembly of ribosomal protein S3 drives 40S subunit maturation” (Nature Communications, 2016) come the findings set out here.

The chains are these.
B3: full-length Yar1 (Yar1-FL), SAXS sample (natural protein, S. cerevisiae, UniProt P46683 1-200, looked up)
chain: MGLHSEPLDQEDQDTIILDARAGDLDSLKDIFTTLVSPELLSTCKESESDSTALHMAAANGHIETVRYILETVSRANSAEDLKAFVNEVNKTGNTALHWASLNGKLDVVKLLCDEYEADPFIRNKFGHDAIFEAENSGKEEVETYFLKKYDVEPEDDEEDTQTEGKNSVQITKGTEIEQVTKEATEALREETEKLNINKD
notes: Yar1, ankyrin-repeat protein, S. cerevisiae, full-length; modelled as Yar1 (1-214 including tag; 14 N-terminal residues from the His-tag); not shown: His-tag, N-terminal, kept
B6: full-length Rps3 (ribosomal protein S3), SAXS sample (natural protein, S. cerevisiae, UniProt P05750 1-240, looked up)
chain: MVALISKKRKLVADGVFYAELNEFFTRELAEEGYSGVEVRVTPTKTEVIIRATRTQDVLGENGRRINELTLLVQKRFKYAPGTIVLYAERVQDRGLSAVAQAESMKFKLLNGLAIRRAAYGVVRYVMESGAKGCEVVVSGKLRAARAKAMKFADGFLIHSGQPVNDFIDTATRHVLMRQGVLGIKVKIMRDPAKSRTGPKALPDAVTIIEPKEEEPILAPSVKDYRPAEETEAQAEPVEA
notes: Rps3, S. cerevisiae, full-length; modelled as Rps3 (1-249 including tag); How the SAXS samples were produced is not described; the methods describe His6-tagged proteins from E. coli BL21 (DE3) Rosetta Star in general; also called r-protein S3

Data set [1] deals with T1, His6-Rps3 (S. cerevisiae, UniProt P05750 1-240).
T1 construct: Rps3, S. cerevisiae; expressed from pETDuet-1; source: E. coli BL21 (DE3) Rosetta Star, purified (Ni-NTA agarose) in complex with Yar1 or with Ltv1-Flag; not shown: His6, N-terminal, kept
T1 sequence (looked up): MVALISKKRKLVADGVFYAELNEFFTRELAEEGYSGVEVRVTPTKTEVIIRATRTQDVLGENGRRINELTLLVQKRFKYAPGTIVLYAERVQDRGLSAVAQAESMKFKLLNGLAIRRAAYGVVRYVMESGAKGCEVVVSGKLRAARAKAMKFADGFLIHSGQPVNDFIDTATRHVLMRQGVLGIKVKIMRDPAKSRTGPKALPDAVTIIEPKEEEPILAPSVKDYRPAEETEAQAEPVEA
Put plainly: pull-down; in vitro competition: purified His6-Rps3/Yar1 complex immobilized on Ni-NTA agarose, incubated with buffer or an ∼6-fold molar excess (over Rps3) of purified Ltv1-Flag and/or Enp1-FPA; supernatants and eluates by Coomassie or western blot. The settings on record: both partners purified. In general terms: A western blot detects proteins with antibodies after separation by electrophoresis.

Data set [2] concerns the target T1, His6-Rps3. Put plainly: pull-down; in vitro competition: purified His6-Rps3/Ltv1-Flag complex immobilized on Ni-NTA agarose, incubated with buffer or an ∼1.5-fold or 6-fold molar excess of purified Flag-Yar1; eluates and supernatants by Coomassie or western blot. The settings on record: both partners purified.
Data set [3] has as its target B6. Put plainly: SAXS; small-angle X-ray scattering in solution, direct injection or size exclusion separation before data collection; Tris-HCl 50 mM and NaCl 200 mM, pH 7.5; Rps3 constructs measured in complex with Yar1 constructs. To be noted: both partners purified.
The target of data set [4] is T2, Enp1-Flag-TEV-ProteinA (Enp1-FPA) (S. cerevisiae, UniProt P38333 1-483).
T2 construct: Enp1, S. cerevisiae; A TEV site lies between Flag and Protein A; expressed from pET15b; source: E. coli, purified (anti-Flag agarose); not shown: Flag, C-terminal, kept; Protein A, C-terminal, kept
T2 sequence (looked up): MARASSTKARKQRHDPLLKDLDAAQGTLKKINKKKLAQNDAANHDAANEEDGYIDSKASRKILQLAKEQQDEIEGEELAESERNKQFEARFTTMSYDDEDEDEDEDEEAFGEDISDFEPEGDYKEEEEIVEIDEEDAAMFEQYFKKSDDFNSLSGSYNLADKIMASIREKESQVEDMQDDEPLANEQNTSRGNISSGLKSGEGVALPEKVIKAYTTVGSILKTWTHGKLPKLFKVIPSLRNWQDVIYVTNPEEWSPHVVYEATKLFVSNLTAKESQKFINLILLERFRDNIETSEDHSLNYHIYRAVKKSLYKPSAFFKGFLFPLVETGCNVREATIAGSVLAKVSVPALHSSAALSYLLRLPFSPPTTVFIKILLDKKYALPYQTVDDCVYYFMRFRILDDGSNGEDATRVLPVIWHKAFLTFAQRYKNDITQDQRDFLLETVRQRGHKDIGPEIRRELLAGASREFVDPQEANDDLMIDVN
Put plainly: pull-down; in vitro competition: purified His6-Rps3/Yar1 complex immobilized on Ni-NTA agarose, incubated with buffer or an ∼6-fold molar excess (over Rps3) of purified Ltv1-Flag and/or Enp1-FPA; supernatants and eluates by Coomassie or western blot. To be noted: both partners purified.

For the next data set, the target named is T3, Yar1 core (8-153) (S. cerevisiae, UniProt P46683 8-153).
T3 construct: Yar1, S. cerevisiae, structural core lacking the N- and C-terminal extensions, residues 8-153; also called Yar1 structural core; Yar1(8-153)
T3 sequence (looked up): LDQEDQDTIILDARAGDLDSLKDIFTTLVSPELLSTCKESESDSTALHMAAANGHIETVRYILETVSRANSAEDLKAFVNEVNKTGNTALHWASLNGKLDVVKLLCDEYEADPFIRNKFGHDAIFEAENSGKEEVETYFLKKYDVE
Put plainly: SAXS; small-angle X-ray scattering in solution, direct injection or size exclusion separation before data collection; Tris-HCl 50 mM and NaCl 200 mM, pH 7.5; Rps3 constructs measured in complex with Yar1 constructs. The settings on record: both partners purified. For orientation: In gel filtration, larger molecules generally elute earlier.

Data set [5] deals with B3. The data set is described as above. To be noted: both partners purified.
Data set [6] deals with the molecule itself. The description is as above.

B1: Yar1 of the purified His6-Rps3/Yar1 complex (natural protein, S. cerevisiae, UniProt P46683 1-200, looked up)
chain: MGLHSEPLDQEDQDTIILDARAGDLDSLKDIFTTLVSPELLSTCKESESDSTALHMAAANGHIETVRYILETVSRANSAEDLKAFVNEVNKTGNTALHWASLNGKLDVVKLLCDEYEADPFIRNKFGHDAIFEAENSGKEEVETYFLKKYDVEPEDDEEDTQTEGKNSVQITKGTEIEQVTKEATEALREETEKLNINKD
notes: Yar1, S. cerevisiae; No tag is named for Yar1 in this complex; source: E. coli BL21 (DE3) Rosetta Star, purified in complex with His6-Rps3 (Ni-NTA agarose)
Take B1: the binding result with His6-Rps3 [1] is “binds”.

B2: Flag-Yar1 (natural protein, S. cerevisiae, UniProt P46683 1-200, looked up)
chain: MGLHSEPLDQEDQDTIILDARAGDLDSLKDIFTTLVSPELLSTCKESESDSTALHMAAANGHIETVRYILETVSRANSAEDLKAFVNEVNKTGNTALHWASLNGKLDVVKLLCDEYEADPFIRNKFGHDAIFEAENSGKEEVETYFLKKYDVEPEDDEEDTQTEGKNSVQITKGTEIEQVTKEATEALREETEKLNINKD
notes: Yar1, S. cerevisiae; expressed from pETDuet-1; source: E. coli, purified (anti-Flag agarose); not shown: Flag, N-terminal, kept
As for B2, the binding result with His6-Rps3 [2] was “binds”. With B3, the binding result in data set [3] is “binds”.

B4: Ltv1-Flag (natural protein, S. cerevisiae, UniProt P34078 1-463, looked up)
chain: MSKKFSSKNSQRYVVVHRPHDDPSFYDTDASAHVLVPVSNPNKTSPEADLRKKDVSSTKPKGRRAHVGEAALYGINFDDSEYDYTQHLKPIGLDPENSIFIASKGNEQKVEKKNIEDLFIEPKYRRDEIEKDDALPVFQRGMAKPEYLLHQQDTTDEIRGFKPDMNPALREVLEALEDEAYVVNDDVVVEDISKKTQLQGDNYGEEEKEDDIFAQLLGSGEAKDEDEFEDEFDEWDIDNVENFEDENYVKEMAQFDNIENLEDLENIDYQADVRRFQKDNSILEKHNSDDEFSNAGLDSVNPSEEEDVLGELPSIQDKSKTGKKKRKSRQKKGAMSDVSGFSMSSSAIARTETMTVLDDQYDQIINGYENYEEELEEDEEQNYQPFDMSAERSDFESMLDDFLDNYELESGGRKLAKKDKEIERLKEAADEVSKGKLSQRRNRERQEKKKLEKVTNTLSSLKF
notes: Ltv1, S. cerevisiae; expressed from pET15b; source: E. coli, purified (anti-Flag agarose); also co-expressed in E. coli with His6-Rps20 (in lysate) and purified in complex with His6-Rps3; not shown: Flag, C-terminal, kept
As for B4, the binding result in data set [4] is given as “binds”.

B5: Rps3 N-domain (1-95) (domain or fragment, S. cerevisiae, UniProt P05750 1-95, looked up)
chain: MVALISKKRKLVADGVFYAELNEFFTRELAEEGYSGVEVRVTPTKTEVIIRATRTQDVLGENGRRINELTLLVQKRFKYAPGTIVLYAERVQDRG
notes: Rps3, S. cerevisiae, N-domain, residues 1-95
For B5, the binding result (with Yar1 core (8-153); in data set [5]) was “binds” in each case.

One may read the stoichiometry N as a count of units in the complex or per binding partner. Regarding B6, the “stoichiometry N” value in data set [6] amounted to 2.
